Results: US20100256148A1, “USE OF CFMS INHIBITOR FOR TREATING OR PREVENTING BONE CANCER AND THE BONE LOSS AND BONE PAIN ASSOCIATED WITH BONE CANCER” (priority 2007, published 2010)

Target: T1, CSF-1R (Mus musculus, UniProt P09581)
T1 construct: from tissue; host or cells: mouse spleen, in vivo
T1 sequence (P09581 20-977): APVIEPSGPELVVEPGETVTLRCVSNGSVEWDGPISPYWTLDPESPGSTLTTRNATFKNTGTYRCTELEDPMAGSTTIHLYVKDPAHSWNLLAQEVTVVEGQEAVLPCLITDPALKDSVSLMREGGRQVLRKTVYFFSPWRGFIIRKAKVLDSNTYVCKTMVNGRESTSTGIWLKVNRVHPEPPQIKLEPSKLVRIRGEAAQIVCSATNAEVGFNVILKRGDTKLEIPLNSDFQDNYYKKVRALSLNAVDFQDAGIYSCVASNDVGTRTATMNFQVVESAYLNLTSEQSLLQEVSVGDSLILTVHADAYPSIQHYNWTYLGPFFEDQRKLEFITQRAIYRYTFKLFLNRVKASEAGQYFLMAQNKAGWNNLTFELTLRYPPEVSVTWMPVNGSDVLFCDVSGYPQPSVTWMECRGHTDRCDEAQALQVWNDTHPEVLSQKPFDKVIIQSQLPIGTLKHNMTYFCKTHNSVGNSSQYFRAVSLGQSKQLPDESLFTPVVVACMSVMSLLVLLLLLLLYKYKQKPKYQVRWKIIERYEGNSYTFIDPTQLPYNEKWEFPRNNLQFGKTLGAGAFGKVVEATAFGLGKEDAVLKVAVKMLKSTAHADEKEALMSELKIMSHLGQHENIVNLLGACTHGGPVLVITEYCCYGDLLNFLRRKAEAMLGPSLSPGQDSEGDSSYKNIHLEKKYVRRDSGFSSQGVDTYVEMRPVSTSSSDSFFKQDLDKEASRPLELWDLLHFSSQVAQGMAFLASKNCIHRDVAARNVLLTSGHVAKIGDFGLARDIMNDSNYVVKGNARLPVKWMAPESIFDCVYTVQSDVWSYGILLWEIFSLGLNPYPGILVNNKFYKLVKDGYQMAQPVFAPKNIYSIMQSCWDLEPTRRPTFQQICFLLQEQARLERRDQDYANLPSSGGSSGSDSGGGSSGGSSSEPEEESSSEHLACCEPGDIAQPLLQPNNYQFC
Assay: In vivo pharmacodynamic model: CSF-1-induced splenic c-fos mRNA
Protocol: Eight hours later, mice were administered saline or 0.8 μg recombinant mouse CSF-1 (Cell Biosciences Inc, Norwood, Mass.) via the tail vein. Fifteen minutes after the tail vein injection, mice were sacrificed and spleens were isolated and snap frozen on dry ice. The frozen tissue was homogenized in 1 ml of Trizol (Invitrogen) per 50 mg of tissue, and RNA was purified according to the Trizol instructions and treated with 6.8 Kunitz units of RNase-free DNase (Qiagen, Valencia, Calif.) to degrade contaminating genomic DNA. The RNA was purified further using RNeasy columns (Qiagen). RT-PCR was performed in 25 μL reaction volumes using Reverse Transciptase qPCR Master Mix (Eurogentec) and approximately 50 ng RNA. Applied Biosystems, Inc., (Foster City, Calif.) was the source for the primer probe set for mouse c-fos mRNA (part# Mm00487425) and 18S rRNA (part# 4333760F). Amplification and detection were performed using the ABI Prism 7000 Sequence Detector system. Standard curves were created for c-fos mRNA and for 18s rRNA using RNA isolated from a vehicle-treated, CSF-1-induced mouse and used to calculate relative expression levels in all other samples. c-fos mRNA values were normalized to 18S rRNA content. Averaged, normalized c-fos content in the saline (no CSF-1) group was assigned a value of one and all other groups were expressed as “fold-induced”.

ED50 of splenic c-fos mRNA induction (intravenous recombinant CSF-1): ca. 0.8 μg/mouse
induction of splenic c-fos mRNA (intravenous recombinant CSF-1, within fifteen minutes): 10- to 50 fold
B1: CSF-1: recombinant mouse CSF-1 (Cell Biosciences Inc), given via the tail vein as challenge (protein, UniProt P07141 33-552, looked up)
Macrophage colony-stimulating …: KEVSEHCSHMIGNGHLKVLQQLIDSQMETSCQIAFEFVDQEQLDDPVCYLKKAFFLVQDIIDETMRFKDNTPNANATERLQELSNNLNSCFTKDYEEQNKACVRTFHETPLQLLEKIKNFFNETKNLLEKDWNIFTKNCNNSFAKCSSRDVVTKPDCNCLYPKATPSSDPASASPHQPPAPSMAPLAGLAWDDSQRTEGSSLLPSELPLRIEDPGSAKQRPPRSTCQTLESTEQPNHGDRLTEDSQPHPSAGGPVPGVEDILESSLGTNWVLEEASGEASEGFLTQEAKFSPSTPVGGSIQAETDRPRALSASPFPKSTEDQKPVDITDRPLTEVNPMRPIGQTQNNTPEKTDGTSTLREDHQEPGSPHIATPNPQRVSNSATPVAQLLLPKSHSWGIVLPLGELEGKRSTRDRRSPAELEGGSASEGAARPVARFNSIPLTDTGHVEQHEGSSDPQIPESVFHLLVPGIILVLLTVGGLLFYKWKWRSHRDPQTLDSSVGRPEDSSLTQDEDRQVELPV
